# Laboratory results: patent publication US8541373B2, “BChE albumin fusions for the treatment of cocaine abuse” (priority 2009, dated 2013)
# Test system: cocaine
# Experiment: Plasma cocaine, benzoylecgonine and ecgonine methyl ester (LC-MS) and cocaine PK after IV cocaine post-AlbuBChE
# Assay type: in vivo, cynomolgus monkeys
# Protocol: Blood was placed into K2EDTA blood collection tubes with esterase inhibitor diisopropylfluorophosphate (DFP). Tubes were inverted several times and placed on wet ice upon collection. Samples were centrifuged at 2-8° C. within 45 minutes of collection. The resultant plasma was recovered and a single 200 μL aliquot of plasma was placed into polypropylene tubes. Plasma samples were frozen over dry ice and stored at −75±15° C.
# The following outline describes the LC-MS-based assay employed for the measurement of cocaine in plasma samples. Prior to MS analysis, plasma samples, calibration standards and controls were extracted using supported liquid extraction (SLE-ISOLUTE, Biotage). Twenty-five microliters of samples (25 μL) received 150 μl of 5% Ammonium hydroxide and 25 μl internal standard solution (Cocaine-d3). After mixing and transfer to SLE plate, samples were eluted with methylene chloride and evaporated to dryness. After resuspension in 50 μl of reconstitution solution—5% ACM in 10 mM ammonium acetate in water, 10 μl was injected onto Thermo Hypercarb column at 0.5 ml/min. Mobile phase was biphasic. Mass spectrophotometric detection was performed using Api 4000, APCI positive interface and Multiple Reaction Monitoring (MRM). Plasma concentrations of cocaine, benzoylecgonine and ecgonine methyl ester were determined using this assay.
# When the data permits, pharmacokinetic parameter values for cocaine and its metabolites were determined using plasma concentration-times profiles for individual animals at all the study days of cocaine administration. […] Specifically the model for non-compartmental analysis with IV bolus input for cocaine and extravascular input for the metabolites.
# [1] = 1 mg/kg IM, cocaine 1 mg/kg IV 96 hr post-AlbuBChE, 20 min after cocaine
# [2] = 1 mg/kg IM, cocaine 1 mg/kg IV 96 hr post-AlbuBChE, 30 min after cocaine
# [3] = 1 mg/kg IM, cocaine 1 mg/kg IV 96 hr post-AlbuBChE, 40 min after cocaine
# [4] = 1 mg/kg IM, cocaine 1 mg/kg IV 96 hr post-AlbuBChE, 60 min after cocaine
# [5] = 1 mg/kg IM, cocaine 1 mg/kg IV 120 hr post-AlbuBChE
# [6] = 1 mg/kg IM, cocaine 1 mg/kg IV 120 hr post-AlbuBChE, 5 min after cocaine
# [7] = 1 mg/kg IM, cocaine 1 mg/kg IV 120 hr post-AlbuBChE, 10 min after cocaine
# [8] = 1 mg/kg IM, cocaine 1 mg/kg IV 120 hr post-AlbuBChE, 15 min after cocaine
# [9] = 1 mg/kg IM, cocaine 1 mg/kg IV 120 hr post-AlbuBChE, 20 min after cocaine
# [10] = 1 mg/kg IM, cocaine 1 mg/kg IV 120 hr post-AlbuBChE, 30 min after cocaine
# [11] = 1 mg/kg IM, cocaine 1 mg/kg IV 120 hr post-AlbuBChE, 40 min after cocaine
# [12] = 1 mg/kg IM, cocaine 1 mg/kg IV 120 hr post-AlbuBChE, 60 min after cocaine
# [13] = 1 mg/kg IM, cocaine 1 mg/kg IV 240 hr post-AlbuBChE
# [14] = 1 mg/kg IM, cocaine 1 mg/kg IV 240 hr post-AlbuBChE, 5 min after cocaine
# [15] = 1 mg/kg IM, cocaine 1 mg/kg IV 240 hr post-AlbuBChE, 10 min after cocaine
# [16] = 1 mg/kg IM, cocaine 1 mg/kg IV 240 hr post-AlbuBChE, 15 min after cocaine
# [17] = 1 mg/kg IM, cocaine 1 mg/kg IV 240 hr post-AlbuBChE, 20 min after cocaine
# [18] = 1 mg/kg IM, cocaine 1 mg/kg IV 240 hr post-AlbuBChE, 30 min after cocaine
# [19] = 1 mg/kg IM, cocaine 1 mg/kg IV 240 hr post-AlbuBChE, 40 min after cocaine
# [20] = 1 mg/kg IM, cocaine 1 mg/kg IV 240 hr post-AlbuBChE, 60 min after cocaine
# [21] = 5 mg/kg IM, cocaine 1 mg/kg IV 2 hr post-AlbuBChE
# [22] = 5 mg/kg IM, cocaine 1 mg/kg IV 2 hr post-AlbuBChE, 5 min after cocaine
# [23] = 5 mg/kg IM, cocaine 1 mg/kg IV 2 hr post-AlbuBChE, 10 min after cocaine
# [24] = 5 mg/kg IM, cocaine 1 mg/kg IV 2 hr post-AlbuBChE, 15 min after cocaine
# [25] = 5 mg/kg IM, cocaine 1 mg/kg IV 2 hr post-AlbuBChE, 20 min after cocaine
# [26] = 5 mg/kg IM, cocaine 1 mg/kg IV 2 hr post-AlbuBChE, 30 min after cocaine
# [27] = 5 mg/kg IM, cocaine 1 mg/kg IV 2 hr post-AlbuBChE, 40 min after cocaine
# [28] = 5 mg/kg IM, cocaine 1 mg/kg IV 2 hr post-AlbuBChE, 60 min after cocaine
# [29] = 5 mg/kg IM, cocaine 1 mg/kg IV 48 hr post-AlbuBChE
# [30] = 5 mg/kg IM, cocaine 1 mg/kg IV 48 hr post-AlbuBChE, 5 min after cocaine
substance,measurement,setting,value
AlbuBChE,Ecgonine methyl ester plasma concentration (mean),[1],47.3 ng/mL
same,Mean benzoylecgonine plasma concentration,[1],43.7 ng/mL
same,Mean cocaine plasma concentration,[1],208 ng/mL
same,Ecgonine methyl ester plasma concentration (mean),[2],57.3 ng/mL
same,Mean benzoylecgonine plasma concentration,[2],47.4 ng/mL
same,Mean cocaine plasma concentration,[2],162 ng/mL
same,Ecgonine methyl ester plasma concentration (mean),[3],64.4 ng/mL
same,Mean benzoylecgonine plasma concentration,[3],46.7 ng/mL
same,Mean cocaine plasma concentration,[3],123 ng/mL
same,Ecgonine methyl ester plasma concentration (mean),[4],59.9 ng/mL
same,Mean benzoylecgonine plasma concentration,[4],49.6 ng/mL
same,Mean cocaine plasma concentration,[4],64.8 ng/mL
same,Mean benzoylecgonine AUC(0-t),[5],2809 ng·min/mL
same,Mean cocaine AUC % Extrap,[5],22.4%
same,Mean cocaine AUC(0-t),[5],11526 ng·min/mL
same,Mean cocaine AUC(0-∞),[5],14838 ng·min/mL
same,Mean cocaine C0,[5],491 ng/mL
same,Mean cocaine CI,[5],67.4 mL/min/kg
same,Mean cocaine Vss,[5],2.687 L/kg
same,Mean cocaine t½,[5],28.6 min
same,Ecgonine methyl ester plasma concentration (mean),[6],42.7 ng/mL
same,Mean benzoylecgonine plasma concentration,[6],37.2 ng/mL
same,Mean cocaine plasma concentration,[6],356 ng/mL
same,Ecgonine methyl ester plasma concentration (mean),[7],27.4 ng/mL
same,Mean benzoylecgonine plasma concentration,[7],38.9 ng/mL
same,Mean cocaine plasma concentration,[7],263 ng/mL
same,Ecgonine methyl ester plasma concentration (mean),[8],37.8 ng/mL
same,Mean benzoylecgonine plasma concentration,[8],42.2 ng/mL
same,Mean cocaine plasma concentration,[8],233 ng/mL
same,Ecgonine methyl ester plasma concentration (mean),[9],31.8 ng/mL
same,Mean benzoylecgonine plasma concentration,[9],40.2 ng/mL
same,Mean cocaine plasma concentration,[9],202 ng/mL
same,Ecgonine methyl ester plasma concentration (mean),[10],104 ng/mL
same,Mean benzoylecgonine plasma concentration,[10],51.3 ng/mL
same,Mean cocaine plasma concentration,[10],161 ng/mL
same,Ecgonine methyl ester plasma concentration (mean),[11],68.6 ng/mL
same,Mean benzoylecgonine plasma concentration,[11],50.9 ng/mL
same,Mean cocaine plasma concentration,[11],141 ng/mL
same,Ecgonine methyl ester plasma concentration (mean),[12],76.8 ng/mL
same,Mean benzoylecgonine plasma concentration,[12],54.4 ng/mL
same,Mean cocaine plasma concentration,[12],79.7 ng/mL
same,Mean benzoylecgonine AUC(0-t),[13],3660 ng·min/mL
same,Mean cocaine AUC % Extrap,[13],26.7%
same,Mean cocaine AUC(0-t),[13],14364 ng·min/mL
same,Mean cocaine AUC(0-∞),[13],19623 ng·min/mL
same,Mean cocaine C0,[13],467 ng/mL
same,Mean cocaine CI,[13],51.1 mL/min/kg
same,Mean cocaine Vss,[13],2.288 L/kg
same,Mean cocaine t½,[13],31.0 min
same,Ecgonine methyl ester plasma concentration (mean),[14],92.7 ng/mL
same,Mean benzoylecgonine plasma concentration,[14],40.0 ng/mL
same,Mean cocaine plasma concentration,[14],397 ng/mL
same,Ecgonine methyl ester plasma concentration (mean),[15],21.9 ng/mL
same,Mean benzoylecgonine plasma concentration,[15],47.2 ng/mL
same,Mean cocaine plasma concentration,[15],340 ng/mL
same,Ecgonine methyl ester plasma concentration (mean),[16],25.9 ng/mL
same,Mean benzoylecgonine plasma concentration,[16],55.0 ng/mL
same,Mean cocaine plasma concentration,[16],300 ng/mL
same,Ecgonine methyl ester plasma concentration (mean),[17],29.5 ng/mL
same,Mean benzoylecgonine plasma concentration,[17],56.7 ng/mL
same,Mean cocaine plasma concentration,[17],259 ng/mL
same,Ecgonine methyl ester plasma concentration (mean),[18],41.3 ng/mL
same,Mean benzoylecgonine plasma concentration,[18],64.6 ng/mL
same,Mean cocaine plasma concentration,[18],218 ng/mL
same,Ecgonine methyl ester plasma concentration (mean),[19],51.8 ng/mL
same,Mean benzoylecgonine plasma concentration,[19],68.3 ng/mL
same,Mean cocaine plasma concentration,[19],181 ng/mL
same,Ecgonine methyl ester plasma concentration (mean),[20],54.3 ng/mL
same,Mean benzoylecgonine plasma concentration,[20],75.2 ng/mL
same,Mean cocaine plasma concentration,[20],117 ng/mL
same,Mean benzoylecgonine AUC(0-t),[21],1405 ng·min/mL
same,Mean cocaine AUC(0-t),[21],3289 ng·min/mL
same,Mean cocaine C0,[21],271 ng/mL
same,Ecgonine methyl ester plasma concentration (mean),[22],337 ng/mL
same,Mean benzoylecgonine plasma concentration,[22],22.3 ng/mL
same,Mean cocaine plasma concentration,[22],145 ng/mL
same,Ecgonine methyl ester plasma concentration (mean),[23],321 ng/mL
same,Mean benzoylecgonine plasma concentration,[23],23.7 ng/mL
same,Mean cocaine plasma concentration,[23],77.9 ng/mL
same,Ecgonine methyl ester plasma concentration (mean),[24],363 ng/mL
same,Mean benzoylecgonine plasma concentration,[24],22.0 ng/mL
same,Mean cocaine plasma concentration,[24],43.5 ng/mL
same,Ecgonine methyl ester plasma concentration (mean),[25],331 ng/mL
same,Mean benzoylecgonine plasma concentration,[25],22.9 ng/mL
same,Mean cocaine plasma concentration,[25],12.8 ng/mL
same,Ecgonine methyl ester plasma concentration (mean),[26],266 ng/mL
same,Mean benzoylecgonine plasma concentration,[26],31.1 ng/mL
same,Mean cocaine plasma concentration,[26],110 ng/mL
same,Ecgonine methyl ester plasma concentration (mean),[27],308 ng/mL
same,Mean benzoylecgonine plasma concentration,[27],21.3 ng/mL
same,Mean cocaine plasma concentration,[27],4.96 ng/mL
same,Ecgonine methyl ester plasma concentration (mean),[28],248 ng/mL
same,Mean benzoylecgonine plasma concentration,[28],20.1 ng/mL
same,Mean cocaine plasma concentration,[28],2.26 ng/mL
same,Mean benzoylecgonine AUC(0-t),[29],1441 ng·min/mL
same,Mean cocaine AUC % Extrap,[29],3.0%
same,Mean cocaine AUC(0-t),[29],3015 ng·min/mL
same,Mean cocaine AUC(0-∞),[29],3110 ng·min/mL
same,Mean cocaine C0,[29],177 ng/mL
same,Mean cocaine CI,[29],325 mL/min/kg
same,Mean cocaine Vss,[29],5.729 L/kg
same,Mean cocaine t½,[29],11.4 min
same,Ecgonine methyl ester plasma concentration (mean),[30],119 ng/mL
same,Mean benzoylecgonine plasma concentration,[30],20.0 ng/mL
same,Mean cocaine plasma concentration,[30],126 ng/mL
